For one substance, CD36 surface expression on Mo (flow cytometry, percentage of CD36 positive cells) after bLF 100 μg/mL for 18 h (% CD36 positive cells) results are on record in paper PMC4690146.

The experiment addresses CD36 (human (endogenous in primary monocytes)) (UniProt P16671).
Sequence of UniProt P16671 (P16671 whole entry): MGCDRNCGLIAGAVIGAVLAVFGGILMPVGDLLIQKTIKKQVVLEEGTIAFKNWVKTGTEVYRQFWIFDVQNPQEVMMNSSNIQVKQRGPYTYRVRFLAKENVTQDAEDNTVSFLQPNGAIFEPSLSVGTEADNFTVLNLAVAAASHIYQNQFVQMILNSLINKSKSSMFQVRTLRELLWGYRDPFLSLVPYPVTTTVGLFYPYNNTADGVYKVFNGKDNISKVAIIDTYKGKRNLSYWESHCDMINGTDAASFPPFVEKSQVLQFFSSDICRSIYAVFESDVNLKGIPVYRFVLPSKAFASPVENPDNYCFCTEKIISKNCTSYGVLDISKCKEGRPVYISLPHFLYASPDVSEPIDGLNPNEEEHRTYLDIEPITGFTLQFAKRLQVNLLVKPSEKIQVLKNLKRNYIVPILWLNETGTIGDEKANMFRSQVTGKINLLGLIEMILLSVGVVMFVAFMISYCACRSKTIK

As to bovine lactoferrin (natural protein), the CD36 surface expression on Mo (flow cytometry, percentage of CD36 positive cells) after bLF 100 μg/mL for 18 h (% CD36 positive cells) is under 30.
